Results published in patent publication US9744222B2, “Peptide for vaccine” (Circassia Limited, priority 2007, dated 2017).

What was measured:
[1] = target: DRB1*0301 (Homo sapiens, UniProt P01903+P01911, A100K/A102G/A103R/A169T/F55Y/I96L/K41T/L162R/M171V/P40S/Q125H/Q178H/Q39Y/R42S/S66N/T106N/T262R/W38E/Y61H); assay: Competitive MHC class II binding assay; conditions: control peptide Myco. tuberculosis/leprae hsp 65 2-16
Description: (§1) This is a characteristic of promiscuous HLA-DRB1* binders.

[2] = Precipitation in aqueous solution of the binding assay; assay type: physicochemical; conditions: lowest concentration at which an insoluble white precipitate is seen in the aqueous solution of the binding assay
Description: as §1

[3] = target: DQA1*0102/DQB1*0602 (Homo sapiens, UniProt P01909+P01920, A157G/A45G/C70R/E118A/E183D/E77G/F83G/G63E/H151Q/H199R/H252R/H253Q/I129T/I235V/I88M/INS77G/K197Q/L117V/L119F/L178F/L71W/L74F/L85Q/L91A/L98M/N214S/P87R/Q116E/Q76K/R102G/R240Q/R75S/R78G/S102Y/S185I/S41F/S97I/T121G/T122I/T172A/T86R/V229M/V68A/V73E/Y34C/Y41F/Y58L); assay: Competitive MHC class II binding assay; conditions: control peptide Human Insulin B 1-15
Experimental: as §1
In addition, to identify lower affinity binders, the assay was also carried out under less stringent conditions. All the Der p binding peptides were seen to have a high ratio when tested against this allotype, showing they were low affinity binders compared to the control peptide. The DQA1*0102/DQB1*0602 binding assay uses a peptide from the B-chain of human insulin which is of lower affinity compared to those used in the DR assays. This dictates that the DQ assay is very sensitive and tends to produce very low ratio values for the strongest binders to this MHC Class II allotype. This sensitivity also accounts for the relatively higher number of DQ binding peptides within the panel screened.

[4] = tested on: human MHC class II allotypes; assay: Competitive MHC class II binding assay, all allotypes; conditions: competition assay, any allotype
Description: as §1
This is of significance as purities were seen to vary from 60-90%. This would have a considerable effect on the ability of a peptide to compete if it is relatively impure. […] Therefore, if purity is taken into consideration, they may in fact have an equivalent affinity to a peptide of a higher purity.

[5] = Solubility pre-screen of peptides; conditions: pre-screened for solubility in an aqueous, acidic milieu; YES/NO
[6] = target: DRB1*0701 (Homo sapiens, UniProt P01903+P01911, A100R/A102G/A103Q/D57E/D86V/E43K/F76Y/K127E/L162R/M171V/P40G/Q125H/Q99D/R33Q/R42Y/R54Q/S133A/S66F/T210M/V115G/Y107V/Y59L/Y89S); assay: Competitive MHC class II binding assay; conditions: control peptide Influenza haemagglutinin 307-319
[7] = target: DRB1*1501 (Homo sapiens, UniProt P01903+P01911); assay: Competitive MHC class II binding assay; conditions: control peptide Human myelin basic protein 85-99
[8] = target: DRB1*1101 (Homo sapiens, UniProt P01903+P01911, A100R/A169T/A87E/I96F/K41T/L162R/M171V/P40S/Q125H/Q178H/Q39Y/Q99D/R42S/S66Y/T262R/V115G/W38E); assay: Competitive MHC class II binding assay; conditions: control peptide Influenza haemagglutinin 307-319

Sequence | Relative binding, ratio of own IC50 to that of the control peptide, DRB1*0301 [1] | Precipitation in assay [2] | Relative binding, ratio of own IC50 to that of the control peptide, DQA1*0102 QB1*0602 [3] | MHC Class II binding (in words) [4] | Solubility test [5] | Relative binding, ratio of own IC50 to that of the control peptide, DRB1*0701 [6] | Relative binding, ratio of own IC50 to that of the control peptide, DRB1*1501 [7] | Relative binding, ratio of own IC50 to that of the control peptide, DRB1*1101 [8]
DGLEVDVPGIDPNACH [HDM23A] | 347 | None | 0.76 | low affinity binding |  |  |  | 
CIIHRGKPFQLEA [HDM20] |  | None | 2.37 |  | YES | 1.1 | 242.11 | 28
